Laboratory results as given in patent US20070027082A1 (UNIVERSITY OF TENNESSEE RESEARCH FOUNDATION, published 2007).

T1: type I IL-1 receptor on murine EL4 6.1 cells (murine) (UniProt P13504)
T1 sequence (looked up): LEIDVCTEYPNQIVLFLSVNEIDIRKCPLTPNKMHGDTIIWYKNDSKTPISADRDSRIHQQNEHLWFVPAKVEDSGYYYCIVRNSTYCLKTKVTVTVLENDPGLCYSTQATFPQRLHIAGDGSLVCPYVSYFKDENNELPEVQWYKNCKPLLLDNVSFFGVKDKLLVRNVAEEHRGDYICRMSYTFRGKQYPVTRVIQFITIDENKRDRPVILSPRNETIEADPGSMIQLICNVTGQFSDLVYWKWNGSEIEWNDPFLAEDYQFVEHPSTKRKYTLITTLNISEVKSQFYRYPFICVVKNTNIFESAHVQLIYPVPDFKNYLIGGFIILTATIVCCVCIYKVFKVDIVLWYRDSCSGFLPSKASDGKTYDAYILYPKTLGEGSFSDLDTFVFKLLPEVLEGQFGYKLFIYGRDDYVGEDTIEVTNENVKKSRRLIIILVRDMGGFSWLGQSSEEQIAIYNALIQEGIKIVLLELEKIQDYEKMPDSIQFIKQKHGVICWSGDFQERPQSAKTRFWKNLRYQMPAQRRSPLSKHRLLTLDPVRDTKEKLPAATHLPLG

T2: type I IL-1 receptor on murine EL4 6.1 cells (murine, UniProt P13504 20-576)
T2 construct: whole, on cells; Endogenous receptor on the murine T cell line EL4 6.1; also called type I IL-1Rs; IL-1 receptors on murine EL4 6.1 cells
T2 sequence (looked up): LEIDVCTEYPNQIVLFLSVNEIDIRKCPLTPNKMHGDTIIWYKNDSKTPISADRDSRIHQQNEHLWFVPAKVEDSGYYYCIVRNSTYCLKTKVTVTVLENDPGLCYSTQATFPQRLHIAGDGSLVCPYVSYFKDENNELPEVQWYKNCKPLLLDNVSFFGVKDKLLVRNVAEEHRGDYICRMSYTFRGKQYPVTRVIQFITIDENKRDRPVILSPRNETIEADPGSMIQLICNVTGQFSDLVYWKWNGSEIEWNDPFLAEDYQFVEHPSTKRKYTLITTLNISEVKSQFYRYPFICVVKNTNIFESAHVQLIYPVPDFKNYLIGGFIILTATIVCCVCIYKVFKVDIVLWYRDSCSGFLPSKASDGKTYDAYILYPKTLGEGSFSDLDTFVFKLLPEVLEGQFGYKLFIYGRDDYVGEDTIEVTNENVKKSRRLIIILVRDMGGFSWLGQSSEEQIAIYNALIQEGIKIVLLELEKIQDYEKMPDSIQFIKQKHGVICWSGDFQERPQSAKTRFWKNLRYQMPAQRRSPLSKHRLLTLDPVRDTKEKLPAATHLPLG


What was measured:
[1] = molecular target: T1, type I IL-1 receptor on murine EL4 6.1 cells (murine); assay: competitive radioligand binding on EL4 6.1 cells, 100x excess of competitor
[2] = molecular target: T2, type I IL-1 receptor on murine EL4 6.1 …; assay: competition with [125I] IL-1 beta for type I IL-1R on EL4 6.1 cells
Description: IL-1 beta for binding to type I IL-1 receptors on murine cells. EL46.1 cells were incubated at 4° C. in presence of the sodium azide for 2 hr with and without each of the IL-1ra peptides or with soluble human recombinant interleukin Ira (shrIL-1ra) as a control. Cells were then incubated with [¹²⁵I]hrIL-1, transferred to microfuge tubes containing phthalolate oil, centrifuged and free and bound radioactivity determined. Non-specific binding was determined in the presence of 100× excess concentration of cold hrIL-1 beta.

soluble human recombinant interleukin 1ra (shrIL-1ra), sequence (P18510 26-177 limits assumed): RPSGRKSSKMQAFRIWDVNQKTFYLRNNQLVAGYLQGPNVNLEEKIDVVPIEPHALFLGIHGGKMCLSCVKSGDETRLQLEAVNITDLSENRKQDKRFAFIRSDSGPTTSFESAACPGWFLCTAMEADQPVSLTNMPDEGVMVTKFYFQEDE

Molecule	displacement of [125I] IL-1 beta [1]	binding result [2]
soluble human recombinant interleukin 1ra (shrIL-1ra) (from UniProt P18510 26-177) (ligand)	> 90%	–
RPSGRKSSKMQAFRIWDVNQKTFYLRNNQLVAGYL (Synthetic peptide representing part of the processed/mature form of human sIL-1ra; also called IL-1ra 1-35; amino terminal IL-1ra peptide) [IL-1ra peptide 1-35 (SEQ ID NO: 13)]	–	no binding
